In patent US20170355757A1 (Regeneron, published 2017):

T1: monkey C5-mmh (monkey, UniProt P01031 19-1676 (human entry), limits assumed)
T1 construct: Recombinant monkey C5 with a C-terminal myc-myc-hexahistidine tag
T1 chain: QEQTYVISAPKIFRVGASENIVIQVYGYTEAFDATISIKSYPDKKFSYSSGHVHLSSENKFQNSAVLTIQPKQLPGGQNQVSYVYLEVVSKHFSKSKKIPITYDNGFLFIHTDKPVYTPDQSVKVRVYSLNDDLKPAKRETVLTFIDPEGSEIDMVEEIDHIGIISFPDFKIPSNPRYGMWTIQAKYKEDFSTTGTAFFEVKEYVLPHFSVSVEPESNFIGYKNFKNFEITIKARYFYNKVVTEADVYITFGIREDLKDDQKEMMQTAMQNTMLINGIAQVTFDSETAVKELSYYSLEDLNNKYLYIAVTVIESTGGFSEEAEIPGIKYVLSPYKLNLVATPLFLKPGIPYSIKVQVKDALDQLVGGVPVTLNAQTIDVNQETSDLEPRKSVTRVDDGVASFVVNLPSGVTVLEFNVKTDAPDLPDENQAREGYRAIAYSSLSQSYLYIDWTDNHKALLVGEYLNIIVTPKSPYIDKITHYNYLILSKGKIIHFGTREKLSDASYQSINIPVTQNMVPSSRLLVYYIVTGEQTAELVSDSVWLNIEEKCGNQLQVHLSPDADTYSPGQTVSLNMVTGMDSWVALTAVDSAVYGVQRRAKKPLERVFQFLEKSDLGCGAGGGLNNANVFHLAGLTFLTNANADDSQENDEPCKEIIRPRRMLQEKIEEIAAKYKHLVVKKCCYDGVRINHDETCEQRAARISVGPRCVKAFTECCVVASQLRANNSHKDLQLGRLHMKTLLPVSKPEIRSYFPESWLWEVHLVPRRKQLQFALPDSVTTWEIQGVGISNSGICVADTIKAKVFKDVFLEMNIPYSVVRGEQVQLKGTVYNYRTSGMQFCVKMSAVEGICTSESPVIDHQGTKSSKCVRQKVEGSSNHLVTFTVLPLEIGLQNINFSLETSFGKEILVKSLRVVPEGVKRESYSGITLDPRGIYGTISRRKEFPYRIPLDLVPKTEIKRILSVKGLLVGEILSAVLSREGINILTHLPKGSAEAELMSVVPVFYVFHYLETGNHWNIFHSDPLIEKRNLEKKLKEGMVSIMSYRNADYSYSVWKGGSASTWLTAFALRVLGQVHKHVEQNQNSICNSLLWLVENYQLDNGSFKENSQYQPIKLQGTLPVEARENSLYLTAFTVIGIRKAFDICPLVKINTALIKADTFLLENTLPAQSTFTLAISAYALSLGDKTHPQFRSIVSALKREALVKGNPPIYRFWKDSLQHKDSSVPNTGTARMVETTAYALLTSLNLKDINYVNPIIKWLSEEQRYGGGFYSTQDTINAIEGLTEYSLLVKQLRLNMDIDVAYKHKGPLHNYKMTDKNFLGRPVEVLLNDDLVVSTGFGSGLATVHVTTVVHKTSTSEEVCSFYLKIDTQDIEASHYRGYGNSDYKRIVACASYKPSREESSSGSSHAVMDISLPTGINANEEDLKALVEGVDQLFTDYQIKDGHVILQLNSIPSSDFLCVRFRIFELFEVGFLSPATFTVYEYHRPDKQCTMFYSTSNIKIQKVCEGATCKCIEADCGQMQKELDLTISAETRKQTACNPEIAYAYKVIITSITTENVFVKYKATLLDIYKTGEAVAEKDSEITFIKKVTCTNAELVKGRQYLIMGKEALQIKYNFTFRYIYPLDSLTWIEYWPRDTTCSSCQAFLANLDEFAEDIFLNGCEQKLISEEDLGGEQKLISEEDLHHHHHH


Legend:
monkey C5-mmh = target: T1, monkey C5-mmh; assay: SPR, mAb captured via anti-hFc, 37C
Procedure, shortened: (§1)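 Sensorgrams of tagged or untagged C5 binding to anti-hFc-captured mAbs, fitted 1:1; KD calculated from the ratio of rate constants.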

human C5 R885H-mmh [1] = target: T2, human C5 R885H-mmh (human, UniProt P01031 19-1676); assay: SPR, mAb captured via anti-hFc, 37C
T2 construct: also called human C5 variant R885H
Procedure, shortened: as §1

human C5 R885C-mmh [2] = target: T3, human C5 R885C-mmh (human, UniProt P01031 19-1676); assay: SPR, mAb captured via anti-hFc, 37C
T3 construct: also called human C5 variant R885C
Procedure, shortened: as §1

human C5 = target: T4, human C5 (human, UniProt P01031 19-1676); assay: SPR, mAb captured via anti-hFc, dissociation at pH7.4 vs pH6.0, 25C
T4 construct: Bought human C5 (EMD #204888, said elsewhere to be purified from plasma); also called hC5; complement component 5
Experimental: Effect of pH on the rate of dissociation of recombinant human C5 bound to purified anti-C5 monoclonal antibodies was determined using a real-time surface plasmon resonance biosensor using a Biacore T200 instrument. The Biacore sensor surface was first derivatized by amine coupling with a monoclonal mouse anti-human Fc antibody (GE, # BR-1008-39) to capture anti-C5 monoclonal antibodies expressed with human IgG4 Fc. All Biacore binding studies were performed using two running buffers PBS-T, pH7.4 (0.01M Na₂HPO₄/NaH₂PO₄, 0.15M NaCl, 0.05% v/v Tween-20, adjusted to pH7.4) and PBS-T, pH6.0 (0.01M Na₂HPO₄/NaH₂PO₄, 0.15M NaCl, 0.05% v/v Tween-20, adjusted to pH6.0). […] Binding dissociative half-lives (t %) were calculated from kd as: […]

human C5 R885H-mmh [3] = target: T2, human C5 R885H-mmh; assay: SPR, mAb captured via anti-hFc, 25C
Procedure, shortened: as §1

human C5 R885C-mmh [4] = target: T3, human C5 R885C-mmh; assay: SPR, mAb captured via anti-hFc, 25C
Procedure, shortened: as §1

100 nM monkey C5-mmh Bound (RU) (monkey C5-mmh)	Kd (monkey C5-mmh) [nM]	koff (monkey C5-mmh) [s⁻¹]	kon (monkey C5-mmh) [M⁻¹ s⁻¹]	t1/2 (monkey C5-mmh) [min]	100 nM Human C5 R885H-mmh Bound (RU) (human C5 R885H-mmh [1])	Kd (human C5 R885H-mmh [1]) [nM]	koff (human C5 R885H-mmh [1]) [s⁻¹]	kon (human C5 R885H-mmh [1]) [M⁻¹ s⁻¹]	t1/2 (human C5 R885H-mmh [1]) [min]	100 nM Human C5 R885C-mmh Bound (RU) (human C5 R885C-mmh [2])	Kd (human C5 R885C-mmh [2]) [nM]	koff (human C5 R885C-mmh [2]) [s⁻¹]	kon (human C5 R885C-mmh [2]) [M⁻¹ s⁻¹]	t1/2 (human C5 R885C-mmh [2]) [min]	t1/2 Ratio pH7.4/pH6.0 (human C5)	100 nM Human C5 R885H-mmh Bound (RU) (human C5 R885H-mmh [3])	Kd (human C5 R885H-mmh [3]) [nM]	koff (human C5 R885H-mmh [3]) [s⁻¹]	kon (human C5 R885H-mmh [3]) [M⁻¹ s⁻¹]	Binder	further results
29	12.7	0.000676	53300	17	29	50.4	0.00123	24300	9	21	8.9	0.000569	63800	20	1.5	197	4.05	0.000214	52900	H4H12168P (antibody, human IgG4, V domains shown, Human IgG4 Fc with S108P hinge mutation (H4H)) VH: QVQLVESGGGVVQPGGSLRLSCAASGFTFGGHAMHWVRQAPGKGLEWLAVISSDGSNKQYADSVKGRFTISRDNPKNTLYLQMNSLRVGDTAIYYCAKEVAPRYYYYGLDVWGQGTTVTVSS VL: DIQMTQSPSSLSASVGDRVTITCRASQDISNFLAWYQQKPGKVPKLLIYTASTLQSGVPSRFSGSGSGTDFTLTVSSLQPEDVATYYCQKYAGALTFGPGTKVDIK	t1/2 (human C5 R885H-mmh [3]): 54 min; 100 nM Human C5 R885C-mmh Bound (RU) (human C5 R885C-mmh [4]): 144 RU; Kd (human C5 R885C-mmh [4]): 3.27 nM; koff (human C5 R885C-mmh [4]): 0.000199 s⁻¹; kon (human C5 R885C-mmh [4]): 60900 M⁻¹ s⁻¹; t1/2 (human C5 R885C-mmh [4]): 58 min
99	6.3	0.00117	186000	10	68	5.46	0.00106	195000	11	64	5.85	0.00104	177000	11	0.3	295	1.19	0.000187	158000	H4H12164P (antibody, human IgG4, V domains shown, Human IgG4 Fc with S108P hinge mutation (H4H)) VH: EVQLVESGGGLVRSGGSLRLSCAASGFTFNRYAMTWVRQAPGKGLEWVSAISGSGSSTYYTDSVKGRFTISRDNSKNSVDLQMHSLRVEDTAIYYCARGTTVTTGYGMDVWGQGTTVTVSS VL: DIQMTQSPSSLSASVGDRVTFTCQASQDITNSLNWYQQKPGRAPKLLIYDASYLKAGVPSRFSGSGSGTDFTFTISSLQPEDIATYYCQQYDDLPYTFGQGTKLEIK	t1/2 (human C5 R885H-mmh [3]): 62 min; 100 nM Human C5 R885C-mmh Bound (RU) (human C5 R885C-mmh [4]): 249 RU; Kd (human C5 R885C-mmh [4]): 1.19 nM; koff (human C5 R885C-mmh [4]): 0.000182 s⁻¹; kon (human C5 R885C-mmh [4]): 153000 M⁻¹ s⁻¹; t1/2 (human C5 R885C-mmh [4]): 63 min
137	0.133	5.5e-05	412000	210	82	1.49	0.000948	638000	12	68	1.74	0.000975	561000	12	≤ 0.3	177	0.25	0.000176	706000	H4H12159P (antibody, human IgG4, V domains shown, Human IgG4 Fc with S108P hinge mutation (H4H)) VH: QVQLVESGGGVVQPGRSLRLSCGASGFTFSTYGMHWVRQAPGKGLEWVAVIWDDGNNKYYADSVKGRFTISRDNSKNTLYLQMNSLRAEDTAVYYCARDSEVAPVGDYWGQGTLVTVSS VL: DIQMTQSPSTLSASVGDRVTIICRASQSINRWLAWYQQKPGKAPKLLIYKASSLESGVPSRFSGSGSGTEFTLTISSLQPDDFAAYYCQQYNDYSYTFGQGTKLEIK	t1/2 (human C5 R885H-mmh [3]): 66 min; 100 nM Human C5 R885C-mmh Bound (RU) (human C5 R885C-mmh [4]): 168 RU; Kd (human C5 R885C-mmh [4]): 0.289 nM; koff (human C5 R885C-mmh [4]): 0.000169 s⁻¹; kon (human C5 R885C-mmh [4]): 586000 M⁻¹ s⁻¹; t1/2 (human C5 R885C-mmh [4]): 68 min
195	8.88	0.00207	233000	6	74	1.91	0.0008	419000	14	69	2.78	0.000791	284000	15	2	259	0.491	0.000106	216000	H4H11686N (antibody, V domains shown, also called H2M11686N) VH: QVQLVESGGGLVKPGGSLRLSCAASGFTFSDYYMSWIRQAPGKGLEWVSYISSSGNTIKYADSMKGRFTISRDNAKKSLFVEMNSLRAEDTAVYYCARYKSSSDYFDHWGQGTLVTVSS VL: EIVLTQSPATLSLSPGERATLSCRASQSVRSYLAWYQQKPGQAPRLLIYDASNRATAIPARFSGSGSGTDFTLTISSLEPEDLAVYYCQQSGNWPLTFGGGTKVEIK	t1/2 (human C5 R885H-mmh [3]): 109 min; 100 nM Human C5 R885C-mmh Bound (RU) (human C5 R885C-mmh [4]): 253 RU; Kd (human C5 R885C-mmh [4]): 0.534 nM; koff (human C5 R885C-mmh [4]): 9.49e-05 s⁻¹; kon (human C5 R885C-mmh [4]): 178000 M⁻¹ s⁻¹; t1/2 (human C5 R885C-mmh [4]): 122 min
74	15.6	0.00276	177000	4	30	69.4	0.0095	137000	1	4	159	0.0179	112000	1	0.9	207	10.9	0.00198	181000	H4H12175P (antibody, human IgG4, V domains shown, Human IgG4 Fc with S108P hinge mutation (H4H)) VH: EVQLVESGGGVVQPGGSLRLSCAASGFTFNDYAMHWVRQAPGKGLEWVSLISGDGGNTYYADSVKGRLTISRDNSKNSLYLQMNSLRTEDTALYYCAKDKGWNFGYFDLWGRGTLVTVSS VL: DIQMTQSPSSLSTSVGDRVTITCRASQNIDTYLNWYQQKPGKAPKLLIYDASSLQSGVPSRFSGSGSGTDFTLTITSLQPEDFATYYCQQNDNILHPLTFGGGTKVEIK	t1/2 (human C5 R885H-mmh [3]): 6 min; 100 nM Human C5 R885C-mmh Bound (RU) (human C5 R885C-mmh [4]): 128 RU; Kd (human C5 R885C-mmh [4]): 190 nM; koff (human C5 R885C-mmh [4]): 0.0155 s⁻¹; kon (human C5 R885C-mmh [4]): 81800 M⁻¹ s⁻¹; t1/2 (human C5 R885C-mmh [4]): 1 min
